{"source": "patent US20230372526A1", "about": "“PREPARATION METHOD FOR BIS-S[…] ANTIBODY-DRUG CONJUGATE” (MABWELL (SHANGHAI) BIOSCIENCE CO., LTD., priority 2020, published 2023)", "experiment": "Hydrolysis of Pertuzumab conjugated samples obtained using different small molecule compounds, hydrolysis percentage by Native MS", "format": "physicochemical", "procedure": "The analysis conditions were as follows: • Capillary activation: the capillary was rinsed with 0.1 mol/L sodium hydroxide for 10 min, 0.1 mol/L hydrochloric acid for 5 min and water for injection for 2 min respectively at 20 psi; and then rinsed with SDS-MW-Gel Buffer for 10 min at 70 psi; afterwards, pre-separation was performed for 10 min at 20 psi, at a column temperature of 25° C. and a voltage of −15 kv. The program was run: at 70 psi, the capillary was rinsed with 0.1 mol/L sodium hydroxide for 3 min, 0.1 mol/L hydrochloric acid for 1 min and water for injection for 1 min respectively; then the gel was poured for 10 min, the sample was loaded for 40 s at −5 kv, and the separation program was run ([…], 20 psi). The column temperature was set to 25° C., the voltage for separation was set to −15 kv, and the separation was performed for 40 min. • (4) Size exclusion chromatography (SEC-HPLC): • Sample treatment: the sample was diluted to 2.0-3.0 mg/ml with the mobile phase, and then was centrifuged at 12000 rpm for 10 min; and the supernatant was taken for analysis. • Chromatographic column: TOSOH, TSKgel G3000SWXL, 5 μm, 7.8 mm×300 mm; • Mobile phase: 100 mM PB+200 mM arginine hydrochloride, 5% isopropanol (pH 6.8); • Flow rate: 0.6 mL/min; • Detection wavelength: 280 nm; • Column temperature: 30° C.; • Loading volume: 10 uL; • Elution gradient: isocratic elution. • (5) Native MS: • Chromatographic column: ACQUITY UPLC Protein BEH SEC 200A (1.7 μm, 2.1 mm×150 mm); • Mobile phase: 50 mM ammonium acetate; • Running time: 12 min; • Flow rate: 0.065 mL/min; • Loading volume: 2 μL; • Column temperature: 30° C.; • Detection wavelength: 280 nm; • Capillary: 3.0 kV; • Cone voltage: 140 V; • Source offset: 80 V; • Source temperature: 125° C.; • Desolvation temperature: 250° C.; • Desolvation gas flow: 600 L/h. • (6) LC-MS:\nPertuzumab was reduced and conjugated as described in section a in Example 2. Conjugated samples obtained using different small molecule compounds were subjected to hydrolysis at 35° C. for a time period in the range of 3-18 hours, in 50 mM sodium dihydrogen phosphate-disodium hydrogen phosphate buffer, pH 7.8. The hydrolysis systems were sampled at different time points, and detected by Native MS.\nPertuzumab was reduced and conjugated as described in section a in Example 2. Conjugated samples obtained using different small molecule compounds were displaced to different hydrolysis solution systems (A: 50 mM sodium dihydrogen phosphate-disodium hydrogen phosphate buffer, pH 7.8; B: 50 mM sodium dihydrogen phosphate-disodium hydrogen phosphate buffer+3% arginine, pH 7.8; C: 50 mM potassium dihydrogen phosphate-dipotassium hydrogen phosphate buffer, pH 7.8; and D: 50 mM tromethamine-hydrochloric acid buffer, pH 7.8) for hydrolysis. Then the hydrolysis systems were sampled at different time points, and detected by Native MS.", "key": {"[1]": {"details": "hydrolysis system A: 50 mM sodium dihydrogen phosphate-disodium hydrogen phosphate buffer, pH 7.8"}, "[2]": {"details": "hydrolysis system B: 50 mM sodium phosphate buffer+3% arginine, pH 7.8"}, "[3]": {"details": "hydrolysis system C: 50 mM potassium dihydrogen phosphate-dipotassium hydrogen phosphate buffer, pH 7.8"}, "[4]": {"details": "hydrolysis system D: 50 mM tromethamine-hydrochloric acid buffer, pH 7.8"}}, "data": [{"smiles": "CCC(C)[C@@H]([C@@H](CC(=O)N1CCC[C@H]1[C@H](OC)[C@@H](C)C(=O)N[C@H](C)[C@@H](O)c1ccccc1)OC)N(C)C(=O)[C@@H](NC(=O)[C@H](C(C)C)N(C)C(=O)OCc1ccc(NC(=O)[C@H](CCCNC(N)=O)NC(=O)[C@@H](NC(=O)COCCOCCOCCOc2c(F)cc(N3C(=O)C(Sc4ccc(C(=O)N5CCOCC5)cc4)=C(Sc4ccc(C(=O)N5CCOCC5)cc4)C3=O)cc2F)C(C)C)cc1)C(C)C", "note": "(stereo partly drawn) [C-3]", "values": [{"measurement": "hydrolysis of conjugated samples (in words)", "setting": "50 mM PB pH 7.8, 35° C., summary of Table 3-2", "result": "hydrolyzed all most completely within 3 hours or 6 hours"}, {"measurement": "6 h hydrolysis percentage", "setting": "Pertuzumab conjugate, 50 mM PB pH 7.8, 35° C., 6 h, Native MS", "result": 99.56, "unit": "%"}, {"measurement": "3 h hydrolysis percentage", "setting": "Pertuzumab conjugate, 50 mM sodium dihydrogen phosphate-disodium hydrogen phosphate buffer, pH 7.8, 35° C., Native MS", "result": 98.31, "unit": "%"}, {"measurement": "1 h hydrolysis percentage", "setting": "[1]", "result": 90.31, "unit": "%"}, {"measurement": "3 h hydrolysis percentage", "setting": "[1]", "result": 99.56, "unit": "%"}, {"measurement": "1 h hydrolysis percentage", "setting": "[2]", "result": 97.52, "unit": "%"}, {"measurement": "3 h hydrolysis percentage", "setting": "[2]", "result": 99.41, "unit": "%"}, {"measurement": "1 h hydrolysis percentage", "setting": "[3]", "result": 90.55, "unit": "%"}, {"measurement": "3 h hydrolysis percentage", "setting": "[3]", "result": 99.70, "unit": "%"}, {"measurement": "1 h hydrolysis percentage", "setting": "[4]", "result": 88.36, "unit": "%"}, {"measurement": "3 h hydrolysis percentage", "setting": "[4]", "result": 99.34, "unit": "%"}, {"measurement": "hydrolysis speed of conjugated samples (in words)", "setting": "hydrolysis systems A-D, pH 7.8, summary of Table 3-3", "result": "hydrolyzed rapidly in all above buffers"}]}]}
